First the molecules themselves.
T1: EsCas13d, nuclease-dead (Eubacterium siraeum, UniProt B0MS50, R295A;H300A;R849A;H854A)
T1 sequence: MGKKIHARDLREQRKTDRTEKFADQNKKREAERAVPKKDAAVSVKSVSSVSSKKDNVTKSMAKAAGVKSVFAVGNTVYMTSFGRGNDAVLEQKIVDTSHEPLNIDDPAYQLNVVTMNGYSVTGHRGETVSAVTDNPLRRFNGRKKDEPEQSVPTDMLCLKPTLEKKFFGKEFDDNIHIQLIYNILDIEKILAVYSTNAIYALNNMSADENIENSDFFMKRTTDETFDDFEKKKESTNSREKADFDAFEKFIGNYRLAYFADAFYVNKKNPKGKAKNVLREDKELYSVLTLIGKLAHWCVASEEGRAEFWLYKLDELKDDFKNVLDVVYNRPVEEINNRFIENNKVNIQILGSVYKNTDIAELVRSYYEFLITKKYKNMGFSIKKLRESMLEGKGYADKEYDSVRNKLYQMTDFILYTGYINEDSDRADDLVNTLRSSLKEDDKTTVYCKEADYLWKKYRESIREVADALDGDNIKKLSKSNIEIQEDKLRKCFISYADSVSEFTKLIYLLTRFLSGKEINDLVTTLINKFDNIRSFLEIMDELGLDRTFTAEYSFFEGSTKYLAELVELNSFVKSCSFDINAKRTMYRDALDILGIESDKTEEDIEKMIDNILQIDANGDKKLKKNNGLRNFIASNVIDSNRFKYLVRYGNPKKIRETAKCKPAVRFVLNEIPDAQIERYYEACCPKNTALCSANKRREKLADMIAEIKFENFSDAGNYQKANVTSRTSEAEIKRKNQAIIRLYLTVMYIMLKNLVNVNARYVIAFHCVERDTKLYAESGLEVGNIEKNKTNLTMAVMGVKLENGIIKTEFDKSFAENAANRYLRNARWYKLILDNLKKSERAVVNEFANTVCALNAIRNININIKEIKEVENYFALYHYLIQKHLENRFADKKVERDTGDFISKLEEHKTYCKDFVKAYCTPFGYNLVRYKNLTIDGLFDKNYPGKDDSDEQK

B1: target 1 MT 5'PFS UAA 3'PFS CAG (mixed)
RNA 1: CACCCGUGCAAAAAUGCAGGGGUCUAAAACUGAGCGGAUAACCUCUCUAUGG
RNA 2: GGGAAUGGAUCCACAUCUACGAAUUCUAACCAUAGAGAGGUUAUCCGCUCACAGAGAUCGGAAGAGCACACGU
B2: target 1 MT 5'PFS CUG 3'PFS AUU (mixed)
RNA 1: CACCCGUGCAAAAAUGCAGGGGUCUAAAACUGAGCGGAUAACCUCUCUAUGG
RNA 2: GGGAAUGGAUCCACAUCUACGAAUUCCUGCCAUAGAGAGGUUAUCCGCUCAAUUAGAUCGGAAGAGCACACGU
B3: target 1 MT 5'PFS UGG 3'PFS UCG (mixed)
RNA 1: CACCCGUGCAAAAAUGCAGGGGUCUAAAACUGAGCGGAUAACCUCUCUAUGG
RNA 2: GGGAAUGGAUCCACAUCUACGAAUUCUGGCCAUAGAGAGGUUAUCCGCUCAUCGAGAUCGGAAGAGCACACGU
B4: target 1 MT 5'PFS GCC 3'PFS UGU (mixed)
RNA 1: CACCCGUGCAAAAAUGCAGGGGUCUAAAACUGAGCGGAUAACCUCUCUAUGG
RNA 2: GGGAAUGGAUCCACAUCUACGAAUUCGCCCCAUAGAGAGGUUAUCCGCUCAUGUAGAUCGGAAGAGCACACGU
B5: target 1 U3G,G15A (mixed)
RNA 1: CACCCGUGCAAAAAUGCAGGGGUCUAAAACUGAGCGGAUAACCUCUCUAUGG
RNA 2: GGGAAUGGAUCCACAUCUACGAAUUCGUACCAUAGAAAGGUUAUCCGCGCACCGAGAUCGGAAGAGCACACGU
B6: target 1 insG 3' of 14,insG 3' of 8 (mixed)
RNA 1: CACCCGUGCAAAAAUGCAGGGGUCUAAAACUGAGCGGAUAACCUCUCUAUGG
RNA 2: GGGAAUGGAUCCACAUCUACGAAUUCGUACCAUAGAGAGGGUUAUGCCGCUCACCGAGAUCGGAAGAGCACACGU
B7: target 1 MT 5'PFS GCC 3'PFS CGU (mixed)
RNA 1: CACCCGUGCAAAAAUGCAGGGGUCUAAAACUGAGCGGAUAACCUCUCUAUGG
RNA 2: GGGAAUGGAUCCACAUCUACGAAUUCGCCCCAUAGAGAGGUUAUCCGCUCACGUAGAUCGGAAGAGCACACGU
B8: target 1 MT 5'PFS UAA 3'PFS CAA (mixed)
RNA 1: CACCCGUGCAAAAAUGCAGGGGUCUAAAACUGAGCGGAUAACCUCUCUAUGG
RNA 2: GGGAAUGGAUCCACAUCUACGAAUUCUAACCAUAGAGAGGUUAUCCGCUCACAAAGAUCGGAAGAGCACACGU
B9: target 1 MT 5'PFS CUG 3'PFS AUG (mixed)
RNA 1: CACCCGUGCAAAAAUGCAGGGGUCUAAAACUGAGCGGAUAACCUCUCUAUGG
RNA 2: GGGAAUGGAUCCACAUCUACGAAUUCCUGCCAUAGAGAGGUUAUCCGCUCAAUGAGAUCGGAAGAGCACACGU
B10: target 1 MT 5'PFS CCC 3'PFS UAA (mixed)
RNA 1: CACCCGUGCAAAAAUGCAGGGGUCUAAAACUGAGCGGAUAACCUCUCUAUGG
RNA 2: GGGAAUGGAUCCACAUCUACGAAUUCCCCCCAUAGAGAGGUUAUCCGCUCAUAAAGAUCGGAAGAGCACACGU
B11: target 1 MT 5'PFS GCC 3'PFS CGA (mixed)
RNA 1: CACCCGUGCAAAAAUGCAGGGGUCUAAAACUGAGCGGAUAACCUCUCUAUGG
RNA 2: GGGAAUGGAUCCACAUCUACGAAUUCGCCCCAUAGAGAGGUUAUCCGCUCACGAAGAUCGGAAGAGCACACGU
B12: target 1 MT 5'PFS UGG 3'PFS UCA (mixed)
RNA 1: CACCCGUGCAAAAAUGCAGGGGUCUAAAACUGAGCGGAUAACCUCUCUAUGG
RNA 2: GGGAAUGGAUCCACAUCUACGAAUUCUGGCCAUAGAGAGGUUAUCCGCUCAUCAAGAUCGGAAGAGCACACGU
B13: target 1 MT 5'PFS GCC 3'PFS UGA (mixed)
RNA 1: CACCCGUGCAAAAAUGCAGGGGUCUAAAACUGAGCGGAUAACCUCUCUAUGG
RNA 2: GGGAAUGGAUCCACAUCUACGAAUUCGCCCCAUAGAGAGGUUAUCCGCUCAUGAAGAUCGGAAGAGCACACGU
B14: target 1 MT 5'PFS AGG 3'PFS UCC (mixed)
RNA 1: CACCCGUGCAAAAAUGCAGGGGUCUAAAACUGAGCGGAUAACCUCUCUAUGG
RNA 2: GGGAAUGGAUCCACAUCUACGAAUUCAGGCCAUAGAGAGGUUAUCCGCUCAUCCAGAUCGGAAGAGCACACGU
B15: target 1 MT 5'PFS GCU 3'PFS CAA (mixed)
RNA 1: CACCCGUGCAAAAAUGCAGGGGUCUAAAACUGAGCGGAUAACCUCUCUAUGG
RNA 2: GGGAAUGGAUCCACAUCUACGAAUUCGCUCCAUAGAGAGGUUAUCCGCUCACAAAGAUCGGAAGAGCACACGU
B16: target 1 MT 5'PFS CAG 3'PFS UGA (mixed)
RNA 1: CACCCGUGCAAAAAUGCAGGGGUCUAAAACUGAGCGGAUAACCUCUCUAUGG
RNA 2: GGGAAUGGAUCCACAUCUACGAAUUCCAGCCAUAGAGAGGUUAUCCGCUCAUGAAGAUCGGAAGAGCACACGU
B17: target 1 MT 5'PFS UAC 3'PFS AUG (mixed)
RNA 1: CACCCGUGCAAAAAUGCAGGGGUCUAAAACUGAGCGGAUAACCUCUCUAUGG
RNA 2: GGGAAUGGAUCCACAUCUACGAAUUCUACCCAUAGAGAGGUUAUCCGCUCAAUGAGAUCGGAAGAGCACACGU
B18: target 1 MT 5'PFS AAG 3'PFS UAC (mixed)
RNA 1: CACCCGUGCAAAAAUGCAGGGGUCUAAAACUGAGCGGAUAACCUCUCUAUGG
RNA 2: GGGAAUGGAUCCACAUCUACGAAUUCAAGCCAUAGAGAGGUUAUCCGCUCAUACAGAUCGGAAGAGCACACGU
B19: target 1 MT 5'PFS GCC 3'PFS UGC (mixed)
RNA 1: CACCCGUGCAAAAAUGCAGGGGUCUAAAACUGAGCGGAUAACCUCUCUAUGG
RNA 2: GGGAAUGGAUCCACAUCUACGAAUUCGCCCCAUAGAGAGGUUAUCCGCUCAUGCAGAUCGGAAGAGCACACGU
B20: target 1 MT 5'PFS CUG 3'PFS AUA (mixed)
RNA 1: CACCCGUGCAAAAAUGCAGGGGUCUAAAACUGAGCGGAUAACCUCUCUAUGG
RNA 2: GGGAAUGGAUCCACAUCUACGAAUUCCUGCCAUAGAGAGGUUAUCCGCUCAAUAAGAUCGGAAGAGCACACGU
B21: target 1 MT 5'PFS GCU 3'PFS CAU (mixed)
RNA 1: CACCCGUGCAAAAAUGCAGGGGUCUAAAACUGAGCGGAUAACCUCUCUAUGG
RNA 2: GGGAAUGGAUCCACAUCUACGAAUUCGCUCCAUAGAGAGGUUAUCCGCUCACAUAGAUCGGAAGAGCACACGU
B22: target 1 MT 5'PFS UCG 3'PFS UGA (mixed)
RNA 1: CACCCGUGCAAAAAUGCAGGGGUCUAAAACUGAGCGGAUAACCUCUCUAUGG
RNA 2: GGGAAUGGAUCCACAUCUACGAAUUCUCGCCAUAGAGAGGUUAUCCGCUCAUGAAGAUCGGAAGAGCACACGU
B23: target 1 MT 5'PFS UAA 3'PFS AGA (mixed)
RNA 1: CACCCGUGCAAAAAUGCAGGGGUCUAAAACUGAGCGGAUAACCUCUCUAUGG
RNA 2: GGGAAUGGAUCCACAUCUACGAAUUCUAACCAUAGAGAGGUUAUCCGCUCAAGAAGAUCGGAAGAGCACACGU
B24: target 1 MT 5'PFS GCC 3'PFS CGG (mixed)
RNA 1: CACCCGUGCAAAAAUGCAGGGGUCUAAAACUGAGCGGAUAACCUCUCUAUGG
RNA 2: GGGAAUGGAUCCACAUCUACGAAUUCGCCCCAUAGAGAGGUUAUCCGCUCACGGAGAUCGGAAGAGCACACGU
B25: target 1 MT 5'PFS UAC 3'PFS AUU (mixed)
RNA 1: CACCCGUGCAAAAAUGCAGGGGUCUAAAACUGAGCGGAUAACCUCUCUAUGG
RNA 2: GGGAAUGGAUCCACAUCUACGAAUUCUACCCAUAGAGAGGUUAUCCGCUCAAUUAGAUCGGAAGAGCACACGU
B26: target 1 MT 5'PFS UAA 3'PFS AGG (mixed)
RNA 1: CACCCGUGCAAAAAUGCAGGGGUCUAAAACUGAGCGGAUAACCUCUCUAUGG
RNA 2: GGGAAUGGAUCCACAUCUACGAAUUCUAACCAUAGAGAGGUUAUCCGCUCAAGGAGAUCGGAAGAGCACACGU
B27: target 1 MT 5'PFS GCC 3'PFS CGC (mixed)
RNA 1: CACCCGUGCAAAAAUGCAGGGGUCUAAAACUGAGCGGAUAACCUCUCUAUGG
RNA 2: GGGAAUGGAUCCACAUCUACGAAUUCGCCCCAUAGAGAGGUUAUCCGCUCACGCAGAUCGGAAGAGCACACGU

From paper PMC10786891, “Massively parallel profiling of RNA-targeting CRISPR-Cas13d” come the findings set out here.

This data set has as its target T1, EsCas13d, nuclease-dead. Put plainly: crRNA (strand 1, pre-loaded); Mg2+; 40 mM Tris-HCl pH 7.5, 150 mM NaCl, 6 mM MgCl2, 1 mM DTT, 0.1% Tween-20, 0.2 mg/ml BSA; 25 C; 10 min per concentration, then washed. Conditions: tags: His6-TwinStrep-SUMO cleaved; N-terminal SNAP kept (SNAP-Surface 488); label: 3' end held by stalled T7 RNA polymerase.
With B1, the Kd – broadly, the free concentration of one partner at which half of the binding sites on the other are occupied at equilibrium, for simple one-to-one binding – stood at 53 ± 22 nM.

Take B2: the Kd stood at 6.05 ± 1.6 nM.

As to B3, the affinity, expressed as Kd, was 71.5 ± 22.5 nM.

For the molecule B4, the Kd came out at 20 ± 5 nM. Against the preceding molecule, the Kd is about 3.6-fold lower.

B5 returned a Kd of 17.5 ± 1 nM.

As to B6, the Kd came out at 9.7 ± 0.7 nM.

B7 yielded a Kd of 10.1 ± 1.65 nM.

With B8, the Kd is about 52.5 nM.

For B9, the Kd worked out at 33.5 ± 8 nM.

In turn, B10 came in with a Kd of about 11 nM.

Consider B11, for which binding was characterised by a dissociation constant (Kd) of 18.5 ± 7.5 nM.

Regarding B12, the affinity, expressed as Kd, was 70 ± 29 nM.

The molecule B13 returned a Kd of 11.8 ± 2.3 nM.

B14 came in with a Kd of 49 ± 19 nM.

B15 returned a Kd of about 60 nM.

For B16, the Kd is about 60 nM.

B17: binding was put at a Kd of 43 ± 20.5 nM.

For B18, the Kd is 24 ± 7 nM.

Consider B19, for which the Kd worked out at 9 ± 1.35 nM.

For the molecule B20, the affinity, expressed as Kd, was 5.05 ± 1.4 nM. This Kd lies about 1.8-fold lower than the previous one.

The molecule B21 displayed a Kd of 51 ± 15 nM.

For the molecule B22, binding was characterised by a dissociation constant (Kd) of 33 ± 9.5 nM.

In turn, B23 registered a dissociation constant (Kd) of 37 ± 6.5 nM.

As to B24, the Kd is 26.1 ± 9.1 nM.

In turn, B25 came in with a Kd of 26.5 ± 8 nM.

For B26, the Kd was about 75 nM.

On to B27, for which the Kd was determined as 15.5 ± 6 nM.
